The series in a line: label from the status in PepcDB records.
In the case of “MLSERAAQMVIFSALIKHKNFTVAAKSLGVSVSHVSKQLSQLEESLGIKLVQRTTRSFTPTEAGKTFYHHCEQVVQAVSSATLEMESQRDEVAGLVRLGLSQSFGTLHIIPAIQELRELYPQLQVEVHLFDYKVDMLAEGLDLWVTNNEHLPEGYIAQRLTDCQFVVAASPDYLLKYDTPTEPNDLSLHNCLIYRSWERDYTGWAFTKGQQELNVKVSGNYSVDLAEAVRDAAIAGWGIAYLATYLLGDEFRTGKLIQLLPDWKASQSMPFYAVYPSRQHMPKKISAVINFIKQKIGNPCHWDQRLAPYISIPK”, the protein production entry was “failed”.

Consider “MEDKTLGLLLDVVGELFSDEISIAVSNTKEYIYYRPSKRIDLKISAGDPIKEGTIAHKAMVTNQKTSEFMNRDVFGIPYHGMAVPFSNNGKLEGCVTAIYPALTDGKSVVTLKTTDGWIPVPFSKVMYLEAKDKKTYVNAEELTGTHKYSLQEFEYLLPKDSFIRCHRSFIVNVNHIKAIYPDTHSTFLLSMDNGERVPVSQSYASYFRKLLGF”, for which the protein production entry was “not failed”. The value for “MFDFLTHDMLAVVWFFLWCVIWGVYFIADSFSLGAGLLTPFIAADKVQRIQIQSSVGPFWGGNEVWLILAAGGTFAAFPLVFSKMFTFLYLPMMLLLIGLIARGISVEYLHKDDNPRIQQFLMWGWFAGSLLVSLVLGVAFANFFKGLEIASGGVYKGTLPGLFGPYALISGVLFVLMSVTSGALWINVKTEGAVAAKAGDLAKKSALLVLIFALVYLAYSFAGVEGFATNYSSMPVLYLLPVLAVGGAVLSVFFAKKGRAFPAFCSNLLAFLFIVEGGLASIYPYMLKSSISPEYGIDIFEAASSHMTLSVMLGGALVFVPIVIIYQLWAYTLFREKITETEQVEY” was “failed”. For “MKQIIDIENWERKENFNFFRHFQNPQLSITSEVECGGARQRAKAAGQSFFLHYLYAVLRAANEIPEFRYRIDPDGRVVLYDTIDMLSPIKIKENGKFFTTRFPYHNDFDTFYQEARLIIDAIPEDGDPYAAENEEVADGDYGLILLSATPDLYFTSITGTQEKRSGNNYPLLNAGKAIIREGRLVMPIAMTIHHGFIDGHHLSLFYKKVEDFLK” the value was “not failed”; for “MSNNMQTVRESYEAFHRRDLPGVLAALAPDVRWTHPDGMSPYGLGGTKHGHDEVIAFIRHVPTHIAEMRLAPDEFIESGERIVVLGTRRVTAVNGRSATLKFVHVWRFENGRAVTFEDHFDTAEMIRLITA”, “not failed”.

Consider “MLPRVHRVRRGGTVYKYHRRTRKELPRDVPEDDPRFVAAWLAEEQRAPTVRSRSQAGTIAAACEAYLGSRSYRELSDGYRPVIRRHVERIKEQGEKALLKDLLPRHIRADLEPLSPPVASSRLKAWRKLAEFWLLKGMLDADPSEGVKRKKMGKVAGFTEWTAEDLEAFRARWPIGTAQRLALELYQWTGARCVDVIRLGPQMVGRDGVLTYVQQKTGNPAHVPWTCPAFGLEEQRADLMRCLPVGSPVYMLTEYGKPRTQKGVSQWFSAAAREAGLESRTAHGLRKYRMNALAEHGASVLVMQSWVGHTTLLEVQEYTRRADRRRVISGGHPVKRDPAGA”, for which the protein production result is listed as “failed”. The value for “MKSTAEDLINGEISSVGVYLYNKLKNYVFEKESSEKTAIRKADFGKIIEEKTDLEEFPAVSKEDIKAICEILYNSKDIEIIIKQLYVFQSDINKSLDEIKEDFVSLFPKTINLENGRINLETGERISFLLKIFEVLDEGIQTALNRAVDEGSSGASNALSNRRHFDMKNKLANGFKEVKKLINESSRAVQEKKIPTEKLPSLFISYAREDDEPFVEKLYQGLKEKGFEIWWDRTAMKNRGRTFLQEIRDAIEDSDLLIAVIGPKAIESDSVRYEWEHALLFSKGVIPVLRMGDYNLLLPEMSKLHCPDFREKRPYEEALEELIRLLKEPIPSLGPIIGIPSLPPNHLPRKNDLNIIKEIILADTVKPVVITSTKQVTALQGMGGMGKSVLSAAFARSAETRRAFYDGIFWITVGLEASESDASGNMRLIGTNLGDDPVNYSSKKEAEASLSKMLSDKVCLIILDDVWKVPQATPFFNALGSRCRLLITTRNDDVVTSLGAQKHEIKVLGKPEALKLLANWCEQEIDSLTSKAAEVARECGYLPLALSICGAMAKSGISWTYILEALQEADLEFIEAQLPNYPDPNVGRALKVSVDFLSLEDPNAVMRYQELVIFPEDELVPETTIAMLWEHTGNLKRRNVEKLLTKLKDRSLLRLDGEAPNRLISLHDLQLDYLRATVGDLTSLHNKLLAAYGKECGNKWSNGSEDGYFFEHLAYHMKEAGRREELHKLLLDFEWMCKKIKCVRLMQEKDGKGIPDLNSLLHDYEFLSNEPKIELVKEAIQLSFDIIAKDEAQFSGQLIGRLQVFNQNEEIRLLLDQATQWKEEDVRLIPLQPCLKPPGGSLKRTFKAHAHPINDVVITSNGKVAISASTDKTIRIWDLNEWIEKGTLKGHLTPVTAIAVSLDGKYAASCSYHIMCLIGDNNIKVWDLEKREEKTTLKGHTHWVQTVAITPDGKYIVSGSLDKTIKFGI” was “failed”. For “MEVSHVTLEPNKDSRPAVLTIGKFDGVHLGHQTILNTALSIKKENEILTAISFSPHPLWALKQIEIYREMLTPRMEKERWLAHYGVDHLIETAFTPRYAETTPEEFVTDHLSNLQLSHIIVGSEFNFGKGRDSDVDLLRDLCKPYGIGVTSVPVIETNQTKISSTNIRAFIRRGHFLEAEQLLGHP” the value was “failed”.

With “MAHHHHHHMAITLPKLKYALNALSPHISEETLSFHYNKHHAGYVNKLNGLIKDTPLANKSLTDILKESTGAIFNNAAQIWNHSFYWDSMGPNCGGEPHGEIKEKIQEDFGSFNNFKDQFSNVLCGHFGSGWGWLALNKNNKLVILQTHDAGNPIKENTGIPILTCDVWEHAYYIDYRNDRLSYVKAWWNLVNWNFANENLKNALNK”, the protein production result is given as “not failed”.

Turning to “MKQWLAAMETSVLVMGALRLFSGSAEIFAALLMLYVNDAKKALFINGMLAFVGPTVLILTMTIGIASVASEISFLKLFFLALGICCIFIALLK”, the protein production entry is “failed”. As for “MLKLFKGIYAIFLCVRECIINLFFILFLLTGFASIAFLVNGSDTNKSKEPNEKVALRLNLSGYLTDNHDDFAHRLIQSELTNDESLKASTFDVVRAIGKAAKDPNITGIVLDLSKFEGSDHSSLSFIGSELKAFKTSGKPVIAIGENYSQSQYYLASFADKIYLNKAGSINLQGLNFSSLYFKALLDKIDAVPHIFRVGTYKSAVEPFLRNDMSDEAKQNAQTLLNSIWHQFRTDIAENRMIAVDQVLPEPKSLIEKYKAVNANDAQYALNQKLVTDIGSKAEIEQALIEQFGKNEKGIYQHINYADYALNLTDRFAVNAEHKIAVINVEGEIISGKSKERSAGSETISELLRQAREDNNVDGVILRVNSPGGSVVASEIILQELQSIQQAGKPVVTSMGGLAASGGYWISATSDKIIASPNTITGSIGIFGLAMTFEKTAKHLGISEDGVATSPLAKTSSLQHLSNEHAELIQINIENGYDAFLDLVSRGRNMSKAEVDKVAQGQVWSGEDALKHGLVDQLGDFHTAYDVLTDLINQKRKAKGENEIKHFTAQWFIESDKGLFSSLLKNIGFKAKSTLAVWLGLPFVPQTQQAAELLQKFNDPQNTYLYCLTCGTIK”, the protein production entry is “failed”. On to “MPYLPEVIIILVLIALNGIFAMSEFALVSAKKIRLRQKAEKGDAGAETALKLSNEPTAFLSTVQIGITLVGIFAGAFGGATIAGELDTYLRDFPALARYSATLSITLVVLIITYLTLILGELVPKQLALNNAETIASRVAKPMFFLSLMARPLVLVLSYSTDAVLRLLRVRKIIGPPVTEEEIKIMIEEGTEAGVFERAEMSMIEGVFDIGDRRVESLMTHRSDIIALDLDDPVDENLKKMIASGRSNFPVYERDLDDVIGIVSVKDVLAKLVESGKVDIRASVTKPLFAPEAITILKLLESFKETGMHIALITDEYGSVQGIITLHDILEAIVGDVRSLGEPEEEQITVLENGSWLIDGDTPVNKLKYVLSVDSFPGEEQGYYLTIAGLIMYILQRIPKTGDHMEFNGLRYEVVDMDGIRIDKVMVTKVPEISKD”, for which the protein production result is given as “not failed”. For the sequence “MLIDIALATYNGEKYIQEMLNSISNQTYQDFMIHLRDDGSTDNTLTLCENHKLYEQGKLKIYKDNIKGLGASKNFLKILGHCNSEYIFLCDQDDFWMKDKIQKMLDHIQKHEYKNNIKVPTLVFSDLQIVDRSLNIIADSFYRNSIKSSMCSSPFDFLLSNHIPGCAMVVNKSLLESIQPLPENFRMHDWWLAFVASFYGKIAYLDEPLIKYRQHGGNTVGVPGMNINILRQIKSILNFRDLLDKGLLHKKKMEIYIDKTCSNKILSYESNRFYDFLKGNMPFLEKNKIFKQIKFGEPLILSYLVWLFL”, the protein production entry is “failed”. For the sequence “MNGVFAINFFVMALMLALYISESFGAIILLFFYKDGSKKVTPYVVPIWELTGTFIAFWVVTSDFAYPSILVPAAFIYAVPLLILLIAFIGRNAFIIFGEFIKKGFIDEKAMYKIFSIFECIFCLVFVIFASSVVTGGGVILSKLAFNVGKWATTPGDVLFVVGTVIFIFGLSFIFYGLEKYKLHSIVLTYIGIILAVVAFVQIHLSISTVPLSPVLAIPILIGILAPILFYIDSTRKIVENKIFFLALLVISVYPFYSLVYPKFFGGTLPVSAFLTNSPMATAYFYITLGGGILLIAMLAYMVYVANGFNKMVAEKA”, the protein production result was “failed”.

Take “MNSMAKKDNLTEELKKHFGFDTFKGNQRAIIENVLAGNDTFVLMPTGGGKSLCYQLPSLMMQGTAIVISPLIALMKNQVDAMRNFSEEDGVAHFINSSLNKSAIDQVKDDIRNGRTKLLYVAPESLTKDENVEFLRQVNISFYAVDEAHCISEWGHDFRPEYRRIRPIINEIGKRPLIALTATATPKVQHDIQKNLGMIDASVFKSSFNRSNLYYEIRPKTANIDREIIKYIKSNEGKSGIIYCLSRKKVEEFADILKANGIKALPYHAGMDSQQRSSNQDAFLMEKADVIVATIAFGMGIDKPDVRYVIHYDIPKSLEGYYQETGRAGRDGGEGQCIAFYAYKDLQKLEKFMQGKPVAEQEIGKQLLLETAAYAETSVCRRKVLLHYFGEEYLEENCGNCDNCLNPKKKVEAKELLSAVLEVVGTLKEKFKAEYIVNMLVGNETSEIQSYKHNELEIFGSGSDEEEKTWNAVIRQALIAGYLAKDIENYGLLKITEKGKEFIKKPVSFKITEDNEFDEEEEEVPVRGGAACAVDPALFSMMKDLRKKLSKRLEVPPFVIFQDPSLEAMATTYPVTLEELQNIPGVGAGKAKRYGKEFIELIKRHVEENEIERPEDLRVRTVANKSKLKVSIIQRIDRKVALDEIAMTNGLEFNELLDEIEAIVYSGTRINIDYFLNDVMDEDHIDDIYEYFKDSETDDLEDAIEELGGDYTEEEIRLVRIKFLSEMAN”: the protein production entry is recorded as “failed”. For “MIITIARQCGCMGDQIGKALAEKYFIPFYDKDAVCRLAKEKGLYEKYPYFYGEMPLDMLLYADTMAGDDTTDNGKTPRKAMADIIGNENCVVVGRCGNNAFRHREDVISVFLTGNKEKRVELIEKKHNVSPKKAAKIVEDTDLRRRSYHNYYTGEEWGNAEYYDICIDVSKVGEDGALRLIEAYINETGVL” the value was “failed”. The value for “MELKILVTGGNVFVPGRLNAHFSTVVYLEHKDRRIIIDPGNLSSMDELEEKFSELGISPDDITDVLFTHVHLDHIFNSVLFENATFYVHEVYKTKNYLSFGTIVGRIYSKVISSWKNVVLLKGEESLFDEKVKVFHTPWHAREHLSFLLDTENAGRVLITGDITPNRLSYYDIIKGYGSVQVKNFLDRVGRIDLLVFPHDAPLKPEVKK” was “not failed”; that for “MTLSKRLALLGAQSAITLAKPRGLGSSLGLLDRRPFPYRQFSELTKANGRRAFLVDTLALVRSLEAQGVPSKQAEAITSAITEVLNDSLENVSESFVSKAEMQKIEMIQDSNLSKFKSEVKSSQVTSTLVV” was “failed”.
